Data published in article PMC6157868, “Characterization of novel glycosyl hydrolases discovered by cell wall glycan directed monoclonal antibody screening and metagenome analysis of maize aerial root mucilage” (PLoS ONE, 2018).

Assays:
[1] = molecular target: T1, α-N-Arabinofuranosidase (FjArf51) (Flavobacterium johnsoniae, UniProt A5FF88); assay: 4-nitrophenol release at […] nm, Michaelis-Menten fit; format: biochemical; settings: 30 °C, pH 7, 50 mM phosphate
T1 construct: gene Fjoh_3113; full-length codon-optimised synthetic gene, pET-28a(+), C-terminal 6xHis, E. coli BL21(DE3) pLysS, 75 kDa
T1 sequence (A5FF88 1-661): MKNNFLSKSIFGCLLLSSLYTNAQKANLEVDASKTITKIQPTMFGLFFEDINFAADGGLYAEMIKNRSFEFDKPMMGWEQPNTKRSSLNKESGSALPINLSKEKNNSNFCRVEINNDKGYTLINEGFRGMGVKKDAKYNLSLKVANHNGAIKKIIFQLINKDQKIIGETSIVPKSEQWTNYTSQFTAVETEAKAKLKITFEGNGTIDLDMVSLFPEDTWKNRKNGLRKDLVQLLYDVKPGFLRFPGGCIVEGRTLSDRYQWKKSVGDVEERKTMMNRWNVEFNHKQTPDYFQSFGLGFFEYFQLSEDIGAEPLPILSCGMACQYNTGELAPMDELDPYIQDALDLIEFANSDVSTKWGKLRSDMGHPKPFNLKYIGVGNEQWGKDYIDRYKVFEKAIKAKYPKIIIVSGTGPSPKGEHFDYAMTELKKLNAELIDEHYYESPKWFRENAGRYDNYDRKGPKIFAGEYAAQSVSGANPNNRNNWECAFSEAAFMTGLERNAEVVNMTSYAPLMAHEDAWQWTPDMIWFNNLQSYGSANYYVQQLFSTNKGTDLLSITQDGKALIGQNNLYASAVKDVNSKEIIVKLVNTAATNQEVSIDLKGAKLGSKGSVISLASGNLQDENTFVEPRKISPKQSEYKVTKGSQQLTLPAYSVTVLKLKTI

purified protein [2] = substrate: O=[N+]([O-])c1ccc(O[C@@H]2O[C@H](CO)[C@@H](O)[C@H](O)[C@@H]2O)cc1; assay: purified protein; format: biochemical, Agrobacterium fabrum; settings: 30 °C, pH 7, 50 mM phosphate
purified protein [3] = substrate: O=[N+]([O-])c1ccc(O[C@@H]2O[C@H](CO)[C@H](O)[C@H](O)[C@H]2O)cc1; assay: purified protein; format: biochemical, Agrobacterium fabrum; settings: 30 °C, pH 7, 50 mM phosphate
purified protein [4] = substrate: C[C@@H]1O[C@@H](Oc2ccc([N+](=O)[O-])cc2)[C@@H](O)[C@H](O)[C@@H]1O; assay: purified protein; format: biochemical, Spirosoma linguale; settings: 30 °C, pH 5, 50 mM citrate-phosphate
purified protein [5] = substrate: O=[N+]([O-])c1ccc(O[C@@H]2OC[C@@H](O[C@@H]3OC[C@@H](O[C@@H]4OC[C@@H](O)[C@H](O)[C@H]4O)[C@H](O)[C@H]3O)[C@H](O)[C@H]2O)cc1; assay: purified protein; format: biochemical, Flavobacterium johnsoniae; settings: 30 °C, pH 6, 50 mM phosphate
purified protein [6] = substrate: O=[N+]([O-])c1ccc(O[C@@H]2OC[C@@H](O[C@@H]3OC[C@@H](O[C@@H]4OC[C@@H](O)[C@H](O)[C@H]4O)[C@H](O)[C@H]3O)[C@H](O)[C@H]2O)cc1; assay: purified protein; format: biochemical, Spirosoma linguale; settings: 30 °C, pH 6, 50 mM phosphate

With `O=[N+]([O-])c1ccc(O[C@@H]2OC[C@H](O)[C@H](O)[C@H]2O)cc1` [4NP-α-Ara] the Km [1] was 220 ± 87 µM.

B1: β-Mannosidase (AfMan2) (Agrobacterium fabrum str. C58) (protein)
chain: MISSSTPETVIDLAGLWHLASVEGDHATEISIPGDIHSALKNAAIIPDPYHGANEKAVQWVAQQDWIIERTFILDDAEASWYLDIDYLDTVAIVFVNDVPVLSADNCFRRYRPDISRAVRPGENTIRIHFHSNITAGAERQARQPFYIPYHPGNSPIANGNMLRKPQCHFGWDWNIAIAPLGLYGKILLKRLDTARIEHVVSSQHHVEGGVELHVAVTLFAEGPASLPVYLSLGDERLRLECGVGAGETVVRHVFFVENPDLWWPAGSGEQTLYKLTVELPDETVTRQIGFRTIELLTDKDEAGSRFAFRINGREIFCRGANWIPADALYSLTSREKTEDLLCSAVEANMNMIRVWGGGFYEEDWFYDLCDRLGLLVWQDFMFACNLYPCSEDFLDNVEHEVDYQVKRLSSHPSIALWCGDNELVGALTWFDESRNNRDRYLVAYDRLNRTIEKALKKATPEALWWPSSPASGYLDYGDAWHADGSGDMHYWSVWHENKSFDNYHQVKPRFCSEFGFQSYTSMPVIRTYAEDKDMNIASPVIELHQKNVGGNERIAGTMFRYFRFPRDFENFVYLSQVQQALAIRTAVDYWRSLKPHCMGTLYWQLNDTWPVASWSSLDYGGGWKALHYAARRFFQPVAVSAIPSADGRRVTFSMVNDTAEDVEIDMNIVALAMDGNRVPLKSANGTCTSDKAATLTDIDMDSLPDGAILAWNFIASNGMTGEGHHVRDTYKALELQPAGLEFSVGPLKNGQFEIDVTAAGLALFIMLEADQPGRYSDNLFDLAAGETRRIIFTPKGAGPQPHFRIFDLHTCQSSPNPGIETMRRKA
notes: full-length codon-optimised synthetic gene, pET-28a(+), C-terminal 6xHis, E. coli BL21(DE3) pLysS, 93 kDa
In the case of B1, the Km (purified protein [2]) is reported as 680 ± 219 µM, the kcat (purified protein [2]) is reported as 1350 s⁻¹ and the kcat/Km (purified protein [2]) is reported as 1.98e+06 M⁻¹ s⁻¹. The Km (purified protein [3]) was 250 ± 62 µM, the kcat (purified protein [3]) was 269 s⁻¹ and the kcat/Km (purified protein [3]) was 1.08e+06 M⁻¹ s⁻¹.

B2: α-L-Fucosidase (SlFuc29) (Spirosoma linguale DSM 74) (protein)
chain: MKKQITSILFSLLVSTSALAQQHSEQNHDKYVWPKDELVKKKLANWQDIKFGLLMHWGTYSEWGVVESWSLCPEDEGWCERRGPYAANWFEYKKAYENLQTTFNPTKFNPERWANAAKGAGMKYVVFTTKHHDGFCMFDTKLTDYKITDKKTPFSSNPRSNVTKEILGAFRQQGFMVGTYFSKPDWHTEDYWWTYFPPKDRNVSYDPKKYPDHWKKFSDFTYNQIEELMTGYGNVDILWLDGGWVRPASTIDSTVSWQRTIPYSQDINMARIAGMARQHQPGLLVVDRTVSGEFENYVTPEQSIPDHYMPIPWESCITMGDSWSYIPKENFKPARKLVQTLVDIVAKNGNLLLNIAPGPDGEWHEEAYQRLQEIGKWITVNGESIYGTKPLAPYRQGQWAFTSNNKAVYASYLPSESEQQLPASISLPALTVAPNAKVTVLGASQALKLTKTKDGFSVVVPEKVRQQLAGQPVWVFKIG
notes: full-length codon-optimised synthetic gene, pET-28a(+), C-terminal 6xHis, E. coli BL21(DE3) pLysS, 55 kDa
Molecule B2 has a Km (purified protein [4]) of 580 ± 20 µM, a kcat (purified protein [4]) of 53.1 s⁻¹ and a kcat/Km (purified protein [4]) of 91800 M⁻¹ s⁻¹.

B3: Oligosaccharide reducing end Xylanase (FjXyn8) (Flavobacterium johnsoniae UW101) (protein)
chain: MTVHHNITNGYLSKIHLLLLIFALIVPAFVISQNKKKIDRELKKPQYRNLFKEAGYSQDDIDKKLTKAYYDVFEGPDKVYFEEGDSLGYVSDVKNKDARTEGMSYGMMVAVQFNKKDVFDRLWRWSVKYMQHQDGPREGYFAWSVNPQTKKQNSAGSASDGELYYITSLLFASNKWGNDTGINYYKEARRILDAMWKKDGTGNIYNIINTEHKQISFVPEGGGYNWTDPSYHVPAFYEIWALYAKDGHEQFYKECAEVSRKFLHKACHPVTGLTSDYTEFNGEPHPTPWLPPGFRYDSWRVPMNIAMDYTWYGKDKEWQEDYAKRFQNFLRSKGLETYEDQFNLDGSTPEFILQAGPVKKLRHSIGLVGTAATASLVNKDKASIDFVHAVWNAKLEPYEDGYFDPYYDGLMYLFSLMHLSGNYQIIVPKG
notes: full-length codon-optimised synthetic gene, pET-28a(+), C-terminal 6xHis, E. coli BL21(DE3) pLysS, 50 kDa
For B3, the Km (purified protein [5]) was 790 ± 222 µM, the kcat (purified protein [5]) was 5.15 s⁻¹ and the kcat/Km (purified protein [5]) was 6530 M⁻¹ s⁻¹.

B4: Xylan β-1,4 Xylosidase (SlXyn39) (Spirosoma linguale DSM 74) (protein)
chain: MPLLRRFCLQTGHLSALFFGLVVSVAFGSIDSHAQTSPDKPVAIQVDLTKDKGPLKPIWAWFGYDEPNYTYMKDGRKLLTEISQLSKVPVNVRVHSLLVTGDGTAALKWGSTNAYTEDKAGNPIYNWTIIDKIFDTFIERGMKPIAQIGFMPEALSTKPQPYRHYWKPGDNYNDIYTGWAYPPKDYKKWSELVYQWVKHSVQRYGQKEVESWYWELWNEPNISYWKGTTEEYIKLYDYTADAVKRALPTAKIGGPEVTGPNWDVSEKFFRAFMDHVVKGTNAVTGKVGTPIDFITFHAKGAPKVVNGVVQMNMGTQLRDIDKGFAIVASYPSLKNLPIIIGESDPEGCAACSEDLHPQNAYRNGTMYSSYTAASFARKYDLAEARGVNLAGAVTWGFEFEDQAWFRGFRDLATNGVDKPVLNVFRMFGMMQGNRVAVNTDLAYNAKKIRDESVRGEPDINALATKDAQSASVMVWNYHDDNVQGPGSPVSLKINGLTAKKVWVQHYRIDQQFSNSYEVWKKMGSPKAPTAEQVAELEKAGQLQLLASPTWVTVEKGVLTMPFQLPRQGVSLVKVSW
notes: full-length codon-optimised synthetic gene, pET-28a(+), C-terminal 6xHis, E. coli BL21(DE3) pLysS, 65 kDa
B4 was tested, and the Km (purified protein [6]) was 80 ± 9 µM, the kcat (purified protein [6]) was 2.17 s⁻¹ and the kcat/Km (purified protein [6]) was 26900 M⁻¹ s⁻¹.
